# Laboratory results taken from patent US10744233B2, “Crystallization inhibitor compositions for implantable urological devices” (Innovative Surface Technologies, Inc., priority 2016, dated 2020).
# Assays:
# [1] = Osteopontin elution assay (ELISA); type: physicochemical; conditions: 1X PBS, 37° C.
# Procedure: Osteopontin Elution Assay
# To determine the amount of osteopontin released, coated Parylene™ coated discs were placed in 2 mL of 1×PBS for up to 30 days. The buffer was exchanged at approximately 30 minutes, 1 hour, 1 day, 5 days, 10 days, 15 days, and 30 days. Eluted samples were refrigerated until assaying. Osteopontin was quantified using an Osteopontin ELISA kit (R &D Systems, Mpls, MN) following the kit's instructions.
# Sample discs coated with either osteopontin loaded PLGA coatings or empty PLGA coatings were placed in 1×PBS for elution over 30 days at 37° C., with the elution buffer exchanged at days 1, 5, 10, 15, and 30.
# Total release per disc was 0.3 ng osteopontin released over 30 days (6-mg PLGA coating/3 ng osteopontin loading per disc).
# [2] = Encrustation assay in artificial urine without bacteria; conditions: two separate experiments (Table 3)
# Procedure: Artificial urine solutions contained either:
# The coatings were analyzed for encrustation.
# In addition, both the Wet 1 and Dry POC coatings were analyzed for encrustation using the same procedure described previously.
Molecule,Osteopontin release period ([1]; 30 days),"Total osteopontin release per disc ([1]; over 30 days, 6-mg PLGA coating/3 ng osteopontin loading per disc)",Reduction of encrustation compared to control empty PLGA [2],Reduction of encrustation compared to uncoated [2]
"osteopontin: human osteopontin (R&D Systems), sialoprotein; in b151 it is released from the osteopontin-loaded PLGA coating",released over the entire 30-day period,0.3 ng,–,–
O=C(O)CC(O)(CC(=O)O)C(=O)O [citric acid],–,–,26-48%,up to 66%
